Assay results taken from patent US20160185837A1 (Medimmune Limited, priority 2013, published 2016).
pEC50: −log10 of the molar value.

How the values were obtained:
PK by Fc Detection = test: PK by Fc Detection
Description: Table printed on a drawing sheet, FIG. 3A-C
Title: PK by Fc Detection
(§1) Circles: IV injection of 1 mg/kg, squares: subcutaneous injection of 1 mg/kg. Pharmacokinetic parameters Cmax, bioavailability (F %) and half-life T1/2 are compared in panel C.
(§2) Circles: IV injection of 1 mg/kg, squares: subcutaneous injection of 1 mg/kg. Pharmacokinetic parameters Cmax, bioavailability (F %) and half life T112 are compared in panel F.
First reader's note: Panel C of FIG. 3A-C; the title 'PK by Fc Detection' is printed over the whole sheet, including plot panels A and B.

PK by Activity = test: PK by Activity
Description: Table printed on a drawing sheet, FIG. 3D-F
as §1, §2
First reader's note: Panel F of FIG. 3D-F; the pharmacokinetic parameters were derived from plasma levels measured by activity (sheet heading 'PK by Activity').

cyno GCGr (cGCGr) = test: cAMP assay, cells expressing cyno GCGr, 4.2% cyno serum albumin; format: cell-based, cynomolgus monkey; conditions: culture medium containing 4.2% cyno serum albumin
Text: In certain aspects, the assay can also be carried out in medium supplemented with serum albumin that corresponds to the receptor being tested, e.g., human serum albumin for testing cAMP activity at hGIPr or hGLP-1r, rat serum albumin for testing cAMP activity at rGIPr or rGLP-1r, and so on. Low protein binding 384-well plates (Greiner #781280) were used to perform eleven 1 in 5 serial dilutions of test samples that were made in assay medium. All sample dilutions were made in duplicate.
A frozen cryo-vial of cells expressing the receptor of interest was thawed rapidly in a water-bath, transferred to pre-warmed assay media and spun at 240×g for 5 minutes. Cells were re-suspended in assay buffer at an optimized concentration (e.g., hGLP-1r and hGIPr cells at 0.5×10^5 cells/ml). […]
cAMP levels were measured using a commercially available cAMP dynamic 2 HTRF kit (Cisbio, Cat #62AM4PEJ), following the two step protocol as per manufacturer's recommendations. […] Plates were incubated at room temperature for one hour and then read on an Envision (Perkin Elmer) using excitation wavelength of 320 nm and emission wavelengths of 620 nm & 665 nm. Data was transformed to % Delta F as described in manufacturer's guidelines and then transformed to percent activation of maximal native agonist response and analysed by 4-parameter logistic fit to determine EC50 values.

Row | pEC50 (cyno GCGr (cGCGr)) | Substance | Cmax (PK by Fc Detection) | F (%) (PK by Fc Detection) | t½ (PK by Fc Detection) | Cmax (PK by Activity) | F (%) (PK by Activity) | t½ (PK by Activity)
1 | – | GLP-1a-Fc (HGEGTFTSDVSSYLEEQAAKEFIAWLVKGR; /note=“Description of Artificial Sequence Synthetic GLP-1 Analog polypeptide”) | 8500 ng/mL | 59% | 79 h | 24 nM | 93% | 30 h
2 | 11.44 | hGCG: native human glucagon, comparator in cAMP assays | – | – | – | – | – | –
